In patent US20240101668A1 (WUGEN, published 2024):

T1: huCLL1-Q244-Avi-Tev-His (human, UniProt Q5QGZ9 65-265)
T1 construct: extracellular domain; also called CLL-1 K244Q
T1 sequence (looked up): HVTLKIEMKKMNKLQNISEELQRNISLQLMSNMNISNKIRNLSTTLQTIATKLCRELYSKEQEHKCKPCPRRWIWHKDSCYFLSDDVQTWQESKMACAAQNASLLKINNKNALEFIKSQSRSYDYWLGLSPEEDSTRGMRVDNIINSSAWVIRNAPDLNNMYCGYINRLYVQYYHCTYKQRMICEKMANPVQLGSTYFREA

T2: huCLL1-K244-Avi-Tev-His (human, UniProt Q5QGZ9 65-265)
T2 construct: extracellular domain
T2 sequence (looked up): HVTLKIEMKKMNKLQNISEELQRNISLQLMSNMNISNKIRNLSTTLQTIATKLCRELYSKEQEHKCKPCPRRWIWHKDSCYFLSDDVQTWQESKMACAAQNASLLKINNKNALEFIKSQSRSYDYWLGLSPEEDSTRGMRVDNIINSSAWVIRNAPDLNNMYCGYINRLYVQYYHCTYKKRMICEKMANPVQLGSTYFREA


How the values were obtained:
[1] = target: T1, huCLL1-Q244-Avi-Tev-His; assay: BLI
[2] = target: T2, huCLL1-K244-Avi-Tev-His; assay: BLI

| binding result [1] | binding result [2] | Binder |
| --- | --- | --- |
| binds | binds | Polypeptide No. 150 (scFv, V domains shown, scFv) VH: QVQLVQSGAEVKKPGASVKVSCKASGYIFTSQYIHWVRQAPGQGLEWMGWINPNSGGTNYAQKFQGRVTMTRDTSTSTVYMELSSLRSEDTAVYYCARDPWGAYGGDAFDIWGQGTMVTVSS VL: DIQMTQSPSSLSASVGDRVTITCRASQGISNNLNWYQQKPGKAPKLLIYDASHLDTGVPSRFSGSGSGTDFTLTISSLQPEDFATYYCQQNYSPPPTFGQGTRLEIKR |
| binds | binds | Polypeptide No. 155 (scFv, V domains shown, scFv) VH: QVQLVQSGAEVKKPGASVKVSCKASGYTFTSYDINWVRQAPGQGLEWMGWMNPSSGDSGYAQKFQGRVTMTRDTSTSTVYMELSSLRSEDTAVYYCARPERSDAFDIWGQGTTVTVSS VL: DIQMTQSPSSLSASVGDRVTITCRASQSIGPWLAWYQQKPGKAPKLLIYDASNLEAGVPSRFSGSGSGTDFTLTISSLQPEDFATYYCQQSFSSPLTFGGGTKVEIKR |
| binds | binds | Polypeptide No. 157 (scFv, V domains shown, scFv) VH: QVQLVQSGAEVKKPGASVKVSCKASGYTFSDYYIHWVRQAPGQGLEWMGIINPSGGSTSYAQKFQGRVTMTRDTSTSTVYMELSSLRSEDTAVYYCARGMTDDAFDIWGQGTMVTVSS VL: DIQMTQSPSSLSASVGDRVTITCRASQGISSWLAWYQQKPGKAPKLLIYDASNLETGVPSRFSGSGSGTDFTLTISSLQPEDFATYYCQQTYAIPLTFGGGTKLEIKR |
| binds | binds | Polypeptide No. 144 (scFv, V domains shown, scFv) VH: QVQLVQSGAEVKKPGASVKVSCKASGYTFTAYYMHWVRQAPGQGLEWMGIIDPSGGSTSYAQQFQGRVTMTRDTSTSTVYMELSSLRSEDTAVYYCARGDYGDYHTLWGQGTLVTVSS VL: DIQMTQSPSSLSASVGDRVTITCRASQGISSYLAWYQQKPGKAPKLLIYDASSLQSGVPSRFSGSGSGTDFTLTISSLQPEDFATYYCQQSYSTPITFGPGTKVDIKR |
| binds | binds | Polypeptide No. 145 (scFv, V domains shown, scFv) VH: QVQLVQSGAEVKKPGASVKVSCKASGGTFSTSYMHWVRQAPGQGLEWMGWIHPDDGNTDYAPKFQGRVTMTRDTSTSTVYMELSSLRSEDTAVYYCARDLGDYDTFDIWGQGTMVTVSS VL: DIQMTQSPSSLSASVGDRVTITCRVSQGISSYLNWYQQKPGKAPKLLIYDASNLQAGVPSRFSGSGSGTDFTLTISSLQPEDFATYYCQQSYSTPPTFGQGTKVEIKR |
| binds | binds | Polypeptide No. 147 (scFv, V domains shown, scFv) VH: QVQLVQSGAEVKKPGASVKVSCKASGYTFTSYHIHWVRQAPGQGLEWVGGIIPSGGSTSYAQKFQGRVTMTRDTSTSTVYMELSSLRSEDTAVYYCARGTNDDHYDYWGQGTLVTVSS VL: DIQMTQSPSSLSASVGDRVTITCRASQGISNYLAWYQQKPGKAPKLLIYDASNLETGVPSRFSGSGSGTDFTLTISSLQPEDFATYYCQQSYSTPLTFGGGTKVEIKR |
| binds | binds | Polypeptide No. 159 (scFv, V domains shown, scFv) VH: QVQLVQSGAEVKKPGASVKVSCKASGYSFTANYIHWVRQAPGQGLEWMGIINPSGGSTSYAQKFQGRVTMTRDTSTSTVYMELSSLRSEDTAVYYCARGNYGDYVEDWGQGTLVTVSS VL: DIQMTQSPSSLSASVGDRVTITCRASQSISSWLAWYQQKPGKAPKLLIYDASNLETGVPSRFSGSGSGTDFTLTISSLQPEDFATYYCQQSYGTPLTFGGGTKVEIKR |
| binds | binds | Polypeptide No. 160 (scFv, V domains shown, scFv) VH: QVQLVQSGAEVKKPGASVKVSCKASGGTFTSYDINWVRQAPGQGLEWMGWINPHSGGTNYAQKFQGRVTMTRDTSTSTVYMELSSLRSEDTAVYYCARLVGGDAFDIWGQGTMVTVSS VL: DIQMTQSPSSLSASVGDRVTITCRASQSISSWLAWYQQKPGKAPKLLIYAASSLQGGVPSRFSGSGSGTDFTLTISSLQPEDFATYYCQQGYTTPLTFGPGTKVDIKR |
| binds | binds | Polypeptide No. 148 (scFv, V domains shown, scFv) VH: QVQLVQSGAEVKKPGASVKVSCKASGGTFTTYGISWVRQAPGQGLEWMGWMNPFSDNTDYAQNFQGRVTMTRDTSTSTVYMELSSLRSEDTAVYYCARGTGDDAFDIWGQGTMVTVSS VL: DIQMTQSPSSLSASVGDRVTITCRASQSISTWVAWYQQKPGKAPKLLIYAASSLQSGVPSRFSGSGSGTDFTLTISSLQPEDFATYYCQQSFSIPLTFGQGTKVEIKR |
| binds | binds | Polypeptide No. 149 (scFv, V domains shown, scFv) VH: QVQLVQSGAEVKKPGASVKVSCKASGYTFTSYDINWVRQAPGQGLEWMGWMNPNSGNTGYAQKFQGRVTMTRDTSTSTVYMELSSLRSEDTAVYYCARELEGEWFDPWGQGTLVTVSS VL: DIQMTQSPSSLSASVGDRVTITCRASQSISSYLNWYQQKPGKAPKLLIYSASNLQSGVPSRFSGSGSGTDFTLTISSLQPEDFATYYCQQAISFPLTFGQGTKVEIKR |
| binds | binds | Polypeptide No. 152 (scFv, V domains shown, scFv) VH: QVQLVQSGAEVKKPGASVKVSCKASGGTFSTNAISWVRQAPGQGLEWMGWMNPNSGNTGYAQKFQGRVTMTRDTSTSTVYMELSSLRSEDTAVYYCAKEDYGGNFDYWGQGTLVTVSS VL: DIQMTQSPSSLSASVGDRVTITCRASQSIGPWLAWYQQKPGKAPKLLIYDASNLQAGVPSRFSGSGSGTDFTLTISSLQPEDFATYYCQQSHSLPLTFGPGTKVDIKR |
| binds | binds | Polypeptide No. 161 (scFv, V domains shown, scFv) VH: QVQLVQSGAEVKKPGASVKVSCKASGYTFTSYDINWVRQAPGQGLEWMGMINPNSGGTSYAQKFQGRVTMTRDTSTSTVYMELSSLRSEDTAVYYCARELLGESFDYWGQGTLVTVSS VL: DIQMTQSPSSLSASVGDRVTITCRASQGISSYLAWYQQKPGKAPKLLIYGASILQSGVPSRFSGSGSGTDFTLTISSLQPEDFATYYCQQSYSTSFTFGPGTKVDIKR |
| binds | binds | Polypeptide No. 151 (scFv, V domains shown, scFv) VH: QVQLVQSGAEVKKPGASVKVSCKASGYTFTDYYIHWVRQAPGQGLEWMGWMNPNSGNTGYAQKFQGRVTMTRDTSTSTVYMELSSLRSEDTAVYYCARVDTADYMDVWGKGTLVTVSS VL: DIQMTQSPSSLSASVGDRVTITCRASQGISSWLAWYQQKPGKAPKLLIYDASNLQTGVPSRFSGSGSGTDFTLTISSLQPEDFATYYCQQSYSTPLTFGQGTKVEIKR |
| binds | binds | Polypeptide No. 154 (scFv, V domains shown, scFv) VH: QVQLVQSGAEVKKPGASVKVSCKASGGTFSSYGVTWVRQAPGQGLEWMGWINPNTGGTDYAQNFQGRVTMTRDTSTSTVYMELSSLRSEDTAVYYCAGEVGVGGYDAFDIWGQGTTVTVSS VL: DIQMTQSPSSLSASVGDRVTITCRASQGISNWLAWYQQKPGKAPKLLIYAASSLQSGVPSRFSGSGSGTDFTLTISSLQPEDFATYYCQQSYSIPLTFGGGTKVEIKR |
| binds | binds | Polypeptide No. 156 (scFv, V domains shown, scFv) VH: QVQLVQSGAEVKKPGASVKVSCKASGYTFTGYFIHWVRQAPGQGLEWMGWMNPNSGNTGYAQKFQGRVTMTRDTSTSTVYMELSSLRSEDTAVYYCARGDYADWFDPWGQGTLVTVSS VL: DIQMTQSPSSLSASVGDRVTITCRASQSISTWLAWYQQKPGKAPKLLIYDAFTLETGVPSRFSGSGSGTDFTLTISSLQPEDFATYYCQQSYSTPLTFGQGTKVEIKR |
| binds | binds | Polypeptide No. 153 (scFv, V domains shown, scFv) VH: QVQLVQSGAEVKKPGASVKVSCKASGGAFSSYALSWVRQAPGQGLEWMGWMNPNSGNTGYAQKFQGRVTMTRDTSTSTVYMELSSLRSEDTAVYYCAADWMIGGDAFDIWGQGTTVTVSS VL: DIQMTQSPSSLSASVGDRVTITCRASQSISSWLAWYQQKPGKAPKLLIYDASRLQSGVPSRFSGSGSGTDFTLTISSLQPEDFATYYCQQSYGIPLTFGGGTKVEIKR |
| binds | binds | Polypeptide No. 146 (scFv, V domains shown, scFv) VH: QVQLVQSGAEVKKPGASVKVSCKASGYTFSGHYMHWVRQAPGQGLEWMGWIDPNSGGTNYAQKFQGRVTMTRDTSTSTVYMELSSLRSEDTAVYYCARDYPFYGDNDAFDIWGQGTTVTVSS VL: DIQMTQSPSSLSASVGDRVTITCRVSQGISSYLNWYQQKPGKAPKLLIYEASSLESGVPSRFSGSGSGTDFTLTISSLQPEDFATYYCQQSYSIPFTFGPGTKVDIKR |
| binds | binds | Polypeptide No. 158 (scFv, V domains shown, scFv) VH: QVQLVQSGAEVKKPGASVKVSCKASGDSFSSYGISWVRQAPGQGLEWMGWINPKSGATTSAQKFQGRVTMTRDTSTSTVYMELSSLRSEDTAVYYCARSTAFDAFDIWGQGTTVTVSS VL: DIQMTQSPSSLSASVGDRVTITCRASQSISSWLAWYQQKPGKAPKLLIYDASNLETGVPSRFSGSGSGTDFTLTISSLQPEDFATYYCQQSYSTPLTFGQGTKVEIKR |
| binds | binds | Polypeptide No. 177 (scFv, V domains shown, scFv) VH: QVQLVQSGAEVKKPGASVKVSCKASGYTFTSYYMHWVRQAPGQGLEWMGWMNPNSGNTGYAQKFQGRVTMTRDTSTSTVYMELSSLRSEDTAVYYCARSTYSDSFDYWGQGTLVTVSS VL: DIQMTQSPSSLSASVGDRVTITCRASQSISNWLAWYQQKPGKAPKLLIYDASNLETGVPSRFSGSGSGTDFTLTISSLQPEDFATYYCQQSYSTPLTFGQGTKLEIKR |
